Data published in publication PMC6366900, “Pat1 promotes processing body assembly by enhancing the phase separation of the DEAD-box ATPase Dhh1 and RNA” (eLife, 2019).
Substitutions are numbered along the chain they refer to. Blank lines part the entries; values can stand above or below the binder they belong to.

Molecular target: T1, Dhh1 (full-length) (S. cerevisiae, UniProt P39517 1-506)
T1 construct: Dhh1, DEAD-box ATPase, S. cerevisiae, full-length; also called DEAD-box ATPase Dhh1; source: purified as described previously (Mugler et al., 2016)
T1 sequence (looked up): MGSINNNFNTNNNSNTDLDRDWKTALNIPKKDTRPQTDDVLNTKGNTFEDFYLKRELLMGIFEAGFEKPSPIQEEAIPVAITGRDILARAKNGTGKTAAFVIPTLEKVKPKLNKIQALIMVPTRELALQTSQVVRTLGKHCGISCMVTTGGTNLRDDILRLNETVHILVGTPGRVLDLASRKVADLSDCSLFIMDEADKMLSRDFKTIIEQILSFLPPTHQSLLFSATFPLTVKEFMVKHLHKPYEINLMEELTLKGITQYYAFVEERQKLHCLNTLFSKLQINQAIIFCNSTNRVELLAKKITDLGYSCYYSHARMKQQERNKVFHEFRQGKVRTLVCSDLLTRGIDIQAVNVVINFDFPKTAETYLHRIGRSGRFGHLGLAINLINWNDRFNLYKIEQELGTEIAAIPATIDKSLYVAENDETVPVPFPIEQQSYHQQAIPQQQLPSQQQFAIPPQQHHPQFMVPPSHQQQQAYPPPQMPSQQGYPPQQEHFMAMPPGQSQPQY
Assay: pull-down; GST-Pat1-NC and mutants bound to GST-slurry as bait, Dhh1 as prey; 1 hr at 4°C; wash buffer 300 mM NaCl, 10 mM Tris pH 7.5, 0.05 % NP40, washed five times; 12% acrylamide gel, Coomassie
Conditions: both partners purified

- binding result: binds
B1: GST-Pat1-NC (domain or fragment, S. cerevisiae)
chain: GLENSGNARDGPLDFEESYKGYGEHELEENDYLNDETFGDNVQVGTDFDFGNPHSSGSSGNAIGGNGVGATARSYGGSGGSGGSGGSSSYAFNNGNGATNLNKSGGKKFILELIETVYEEILDLEANLRNGQQTDSTAMWEALHIDDSSYDVNPFISMLSFDKGIKIMPRIFNFLDKQQKLKILQKIFNELSHLQIIILSSYKTTPKPTLTQLKKVDLFQMIILKIIVSFLSNNSNFIEIMGLLLQLIRNNNVSFLTTSKIGLNLITILISRAALIKQDSSRSNILSSPEISTWNEIYDKLFTSLESKIQLIFPPREYNDHIMRLQNDKFMDEAYIWQFLASLALSGKLNHQRIIIDEVRDEIFATINEAETLQKKEKELSVLPQRSQELDTELKSIIYNKEKLYQDLNLFLNVMGLVY
notes: Pat1, S. cerevisiae, N-terminal fragment (Pat1-N), amino acids 5-79; linker, printed as (GGS)4; Cloned into a pETM-CN vector; The His and GST tags were cleaved unless required for pull-down assays; In the droplet assay (functional rows) the protein was Pat1-NC-GFP, not the GST form; also called recombinant Pat1-NC protein; source: E. coli BL21 DE3, purified (Ni2+ sepharose, Superdex 200); not …

- binding result: binds
B2: GST-Pat1-NC^EE (domain or fragment, S. cerevisiae)
chain: B1 chain with S88E, S89E
notes: Pat1, S. cerevisiae, N-terminal fragment (Pat1-N), amino acids 5-79; linker, printed as (GGS)4; Mutant of m1; also called Pat1^EE; phospho-mimetic mutant; source: E. coli BL21 DE3, purified (Ni2+ sepharose, Superdex 200); not shown: GST, N-terminal, kept
